Experimental data: the nanobody polyreactivity screen of Harvey et al. (2022)

Assay: yeast display, Sf9 membrane polyspecificity reagent, FACS + sequencing; frameworks hold sequencing errors
Method in brief: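 Genes from sorted yeast were amplified by colony PCR, read by MiSeq 2 × 250 sequencing and filtered on CDR length. These cells carried a synthetic nanobody library in Saccharomyces cerevisiae BJ5465 and were sorted by FACS into low and high (top ~1%) gates on anti-HA and streptavidin fluorescence. Polyreactivity is labelled according to the gate of origin.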

Sequence	polyreactivity (PSR sort gate)
QVQLVESGGGLVQAGGSLRLSCAASGSIFSSNAMGWYRPAPGKERELVAAISSGGTTNYADSVKGRFTISRDNAKHTVYLQMNSLKPEDTAVYYCAKRGPSRPAEYDYWGQGTQVTVSS	low polyreactivity
QVQLVESGGGLVQAGGSLRLSSAASGRTFQYYAMGWYRQAPGKERELVAAIDSSGGSTYYADSVKGRFTISRDNAKNTVYLQMNSLKPEDTAVYYCIAGRYRYYYYGYDYWGQGTQVTVSS	high polyreactivity
QVQLVESGGGLVQAGGSLRLSCAASGRIFDYYAMGWYRQAPGKERELVAAISSSVGNTYYADSVKGRFTISRDNAKNTVYLQMNSLKPEDTAVYYFADYSYVRSSYEVEDDYWGQGTQVTVSS	low polyreactivity
QVQLVESGGGLVQAGGSLRLSCAASGRIFNPNAMGWYRQAHGKESELVAAISGSGGSTYYADSVKGRFTISRDNAKNTVNLQMNSLKPEDTAVYYCNKLLSQRRYHSEMDYWGQGTQVTVSS	high polyreactivity
QVQLVESGGGLVQAGGSLRLSCAASGFTFSGYDMGWYRPAPGKERELVAGISSGGVSTTYADSVKGRFTISRDNAKNTVYLQMNSLKPEDTAVYYCNAEWTSFDWGQGTQVTVSS	low polyreactivity
QVQLVESGGGLVQAGGSLRLSCAASGSTFAYYSMGWYRQAPGKERELVAAISRTGGSTYYADSVKGRFTISRDNAKNTVYLQMNSLKPEDTAVYYCNARAPVGTFDYDYWGQGTQVTVSS	low polyreactivity
QVQLVESGGGLVQAGGSLRLSCAACGFTIRRYAKGWYRQAPGKERELVAAITTGGSTYYADSVKGRFTISRDNAKNTVYFQMNSLKPEETAVYDCAALYPYKQYRLGYDSWGQGTQVTVSS	high polyreactivity
QVQLVESGGGLVQAGGSRRIICAASGGTFYYYAMGWYRQAPGKERELVAAITWSGASTRYADSVKGRFTISRDNAKNTVYLQMNSLKPEDTAVYYCAARRVRPLVTYGYWGQGTQLTVSS	high polyreactivity
QVQLVESGGGLVQAGGSLRLSCAASGITFGKNAMVWYRQAPGKEREFDAAISWGGGRTYYADSVKGRFTISRDNAKNTVYLQMNSLKPEDTAVYYCNVGPRAGWYRSNYDYWGQGTQVTVSS	low polyreactivity
QVQRVETGGGLVQAGGSLRLSSAASVLTFKWYAMGWYRQSPGKERELVAAISRDGSTYYGDSVKVRFTISRDNAKNTVYLQMNSLKPEDTAVYYCAADIWPSSLLADEYDYWGQGTQVTVSS	high polyreactivity
QVQLVASGGGLVQAGGSLLLSCAASGSIFDYNAMGWYRKAPGKERELVAAISSSGGSTYYADSVKGRFTISRDNAKNTVYLQMNSLKPEDTAVYYCNNVSRYILGSGYGYWGQGNQVTVSS	high polyreactivity
QVQLVESGGGLVQAGGSLRLSCAASGFIFVNNVMGWYRQAPGKERELVAAISRRGGSTYYADSVKGRFTISRDNAKNTVYLQMNSLKPEDTAVYYCARRGPDFSWKYDYWGQGTQVTVSS	high polyreactivity
QVQLVESGGVLVQAGGSLRLSCAASGSIFNINAMGWYRQAPGKERELVAAMTSGDGTDYADSVKGRFTISRDNAKNTVYLQMNSLKPEDTAVYYCAAEYYWLVPERFDYWGQGTQVTVSS	low polyreactivity
QVQLVESGGGLVQAGGSLRLSCAASGRTFDLYAMGWDRQAPGKERELVAAITKGGGSTYYADSVKGRFTISRDNAKNTVYLQMNSLKPEDSAVYYCAARKYKRIYRISSGIGYYWGHGTQVTVSS	high polyreactivity
QVQLVESGGGLVQAGGSLRLSCAASGSIFAPYTMGWYRQAPGKERELVAAISSSGTSTYYADSVKGRFTISRDNAKNTVYLQMNSLKPEDTAVYYCAADWYYHYGYWGQGTQVTVSS	high polyreactivity
QVQLVESGGGLVQAGGSLRLSCAASGRIFKFYAMGWYRQAPGKERELVAAISRTGGNTYYADSVKGRFTISRDNAKNTVYLQMNSLKPEDTAVYYCAAETYARSSSSKYEYWGQGTQVTVSS	high polyreactivity
QVQLVESGGRLVQAGGSLRLSCAASGSTFWESVLGWNRQSPGKDRELVAAITTNDDSTYYADSVKGRFTISRDNAKNTVYLQMNSLKPEDTAVYYCNAVQITGQFDYWGQGTQVTVSS	low polyreactivity
QVHLVESGGGLVQAGGSLRLSCAASGSIFAWYGMGWYRQAPGKERELVAAISTAGSTNYADSVKGRFTISRDNAKNTVYLQMNSLKPEDTAVYYCAADWGGLWFWYEYWGQCTQVTVSS	low polyreactivity
QVQLVESGGGLVQAGGSLRLSCAASGLTFESYAMGWYRQAPGKERELVAGIDWSGGSTYYADSVKGRFTISRDNAKNTVYLQMNSLKPEDTAGYYCKRYGNSNYFAPGPLYNYWGQGTQVTVSS	high polyreactivity
QVQLVESGGGLVQAGGSLRLSCAASGSTIVYYAMGWYRQAPGKERELVARITWSGGRTYADSVKGRFTISRDNAKNTVYLQMNSLKPEDTAVYYCNADPGDNTTEYDYWGQGTQVTVSS	low polyreactivity
QVQLVESGGGLVQAGGSLRLSCAASGITFPKYAMGWYRQAPGTERELVAAITKSGGSTYYADSVKGRFTISRDNAKNTVYLQMNSLKPEDTEVYYCAVVSRGITKYDYWGQGTQVTVSS	high polyreactivity
QVQLVESGGGLVQAGGSLRLSCAASGRTFYLYGMGWYRQAHGKETELVAAITLSDGSTYYADSVKGRFTISRDNAKNTVYLQMNSLKPEDTAVYYCAARDYPFPYAMNYWGQGTQVTVSS	low polyreactivity

Sequence	polyreactivity (PSR sort gate)
QVHLVESGGGLVQAGGSLRLSCGASGSIFFIYAMGCYRQAPGKERELVATITSGGSTYYADSLKGRFTISRDNAKNTVYLQMNSLKPEDTAVYYCAVDEYFAFDYWGLGTQVTVSS	low polyreactivity
QVQLVESGGGLVQAGGRLRLSCAASGRIFQYNAMGWYRQAPGKERELVAAITSSGGSTYYADSVKGRFTISRDNAKNTVYLQMNSLKPEDTAVYYCAAKRPQYYVQFGYWGHGTQVTVSS	high polyreactivity
QDQLVESGGGLVQAVGSLRLSCAASGSIFSFNAIGWYRQAPGKERELVAVITQRGGSTYYADSVKGRFTISRDNAKTTVYLQMNSLKPEDTAVDYCAARTPRGYYYWGQGTQVTVSS	high polyreactivity
QVQLVESGGGLVQAGGSLRLSCAASGIIFRYNAMGWYRQAPGKERELVAAISTGGSTNYADSVKGRFTISRDNAKNTVYLQMNSLKPEDTAVYYCAADWHRAYGAYDYWGQGTQVTVSS	low polyreactivity
QVQLVESGGGLVQAGGSLRLSCAASGRIFVYYAMGWYRQAPGKERELVAAITSRDDSTYYADSVKGRFTISRDNAKNTVYLQMNSLKPEDTAVYYCNVVPKSRDWQSYGSWGQGTQVTVSS	high polyreactivity
QVELVESAGGLVQAGGSLRLICAASGLTFDAYAMGWYRQAPGKERELVAAISSGGNTYYADSVKWRFTISRDNAKNTVYLQMNSLKPEDTAVYYCAATFIQVVVNVQLYDYDYWGQGTQVTVSS	low polyreactivity
QVQLVESGGGLVQAGGSLRLSCAASGSTLWANAMGWYRQAPGKERELVAAISWRGGRTYYADSVKGRFTISRDNAKNTVYLQMNSLKPEDTAVYYCNAVSYYRPRSDYGGQGTQVTVSS	high polyreactivity
QVQLVESGGGLVQAGGSLRLSCAASGFISPQNTMGWYRQAPGKERELVAAITSGGSTYYADSVKGRFTISRDNAKNTVYLLMNSLKPEDTAVYYCASRPYGTWTYGYWGQGTQVTVSS	low polyreactivity
QVQLVESGGGLVQAGGSLRLSCAASGRIFVYYAMGWYRQAPGNERELVAAITSGGTTYYADSVKGRFTISRDNAKNTVYLQMNSLKPEDTAVYYCAKVGRSDLGYDYWGQGTQVTVSS	low polyreactivity
QVQLVESGGGLVQAGGSLRLSCAASGSTLISYTMGWYRQAPGKERELVAAITSAVTTYYADSVKGRFTISRDNAKNTVYLQMNSLKPEDTAVYYCNTYPFKTLPYRYPRGDYWGQGTQVTVSS	low polyreactivity
QVQLVESGGGLVQAGGSLRLSCAASGSILASYAMGWYRPAPGKERELVAAISWNGARSYYADSVKGRFTISRDNAKNTVYLQMNSLKPEDTAVYYCAGVRVGRTTFDYWGQGTQVTVSS	low polyreactivity
QVQLVESGGGLVQAGGSLRLSCAASGYIFGWYDMGWYRQAPGKERELVAAIDSGGNTYYADSVKGPFTISRDNAKNTVYLQMNSLKPEDTAVYYCNADYWGWSGPPYEYWGQGTQVTVSS	high polyreactivity
QVHLVESGGGLVQAGGSLRLSCAASGRTFATNTMGWYRQAPGKEREFVAAISRGGVSTSYADSVKGRFTISRDNAKNTVYLQMNSLKPEDTAVYYCAAKHYGFNRNHRHSYDYWGQGTQVTVSS	high polyreactivity
QVQLVESGGGLVQAGGSLRLSCAASGSTFYYYAMGWYRQAPGKERELVAAISNRDGRTYYADSVKGRFTISRDNAKNTVYLQMNSLKPEDTAVYYCNAYSYGHYYWGQGTQVTVSS	high polyreactivity
QVQLVESGGGLVQAGGSLRLSCAASGITLDNYVMGWYRQAPGKERELVAAISRTSGRTYYADSVKGRFTISRDNAKNTVYLQMNSLKPEDTAVYYCAAETGYTIRYDYWGQGTQVTVSS	high polyreactivity
QVQLVESGGGLVQAGGSLRLSCAASGIIFYWNAMGWYRQAPGQEREFDASISGSGGSTYADSVKGRFTISRDNAMNTVYFQMKSLKPEDTAVYYCAVLYWRPGYDYLGQGTQVTVSS	high polyreactivity
QVQLVESGGGLVQAGGSLRLSCAAYGRIFYYNAMGWFRQAPGKERELVASIDNGGSTNYADSVKGRFTISRDNAKNTVYLQMNSLKPEDTAVYYCNVDLYYEVSHVFLYEYDYWGQGTQVTVSS	low polyreactivity
QVQLVESGGGLVQAGGSLRLSCAACGFIFHFYAMGWYRQAPGKERELVASISAIGGSTYYADSVKGRFTISRDNAKNTVYLQMNSLKPEDTAVYYCATYSYRHRRYSRYDYWGQGTQVTVSS	high polyreactivity
QVQLVESGGGLVQAGGSLLLSSAASGSIFQPYAMGWYRPAPGKERELVAAISIGDSTNYADSVKGRFTISRDNAKITVYLQMNSLKPEDTAVYYCNTTGEYYDYWGQGTQVTVSS	low polyreactivity
QVQLVESGGGLVQAGGSLRLSCAASGSIFSHNAMGWYRQAPGKERELVAAISRSGGSTYYADSVKGRFTISRDNAKNTVYLQMKSLKPEDTAVYYCAVRAYKVSRYYYWGQGSQVTVSS	low polyreactivity
QVQLVESGGGLVQAGGSLRLSCAASGLTFLRYAMGWYRQAPGKERELVATISASDGDTYYADSVKGRFTISGDNAKNTVYLQMNSLKPEDTAVYYCAADDIYKYYQYYAFPYYRYDDWGQGTEVTVSS	low polyreactivity
